Assay results as given in patent US20160136234A1.

Target: Mitogen-Activated Protein Kinase-Activated Protein Kinase 2 (human) (UniProt P49137)
Assay: cell-based or functional assay

MMI-0100 (peptide) gave an IC50 (radiometric kinase activity assay) of 22 µM.
